In patent US12590147:

What was measured:
[1] = biological target: mix of 3 carriers alone (BSA + OVA + KLH) (bovine; keyhole limpet) (UniProt P02769); assay: monoclonal phage ELISA, negative control coating with carriers alone, replicate 2
[2] = biological target: mix of 3 carriers alone (BSA + OVA + KLH) (bovine; keyhole limpet) (UniProt P02769); assay: monoclonal phage ELISA, negative control coating with carriers alone, replicate 1

Sequence of mix of 3 carriers alone (BSA + OVA + KLH) (bovine; keyhole limpet) (P02769 25-607, chain 1 of 2): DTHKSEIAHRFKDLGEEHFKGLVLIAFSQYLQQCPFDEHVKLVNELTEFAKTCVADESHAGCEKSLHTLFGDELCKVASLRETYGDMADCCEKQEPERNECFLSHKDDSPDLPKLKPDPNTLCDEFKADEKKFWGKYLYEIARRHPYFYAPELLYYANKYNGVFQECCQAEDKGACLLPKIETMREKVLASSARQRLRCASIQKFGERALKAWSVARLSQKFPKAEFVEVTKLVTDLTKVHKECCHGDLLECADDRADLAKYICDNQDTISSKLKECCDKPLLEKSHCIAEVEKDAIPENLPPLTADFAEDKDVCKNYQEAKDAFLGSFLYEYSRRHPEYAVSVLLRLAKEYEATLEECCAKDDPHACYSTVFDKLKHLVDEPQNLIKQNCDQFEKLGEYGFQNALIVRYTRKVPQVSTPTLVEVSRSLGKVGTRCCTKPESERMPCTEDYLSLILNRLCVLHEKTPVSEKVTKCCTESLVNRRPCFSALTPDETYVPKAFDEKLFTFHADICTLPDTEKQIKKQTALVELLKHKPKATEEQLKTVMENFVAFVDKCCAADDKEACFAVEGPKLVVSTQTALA
Sequence of mix of 3 carriers alone (BSA + OVA + KLH) (bovine; keyhole limpet) (P01012 2-386, chain 2 of 2, further chain): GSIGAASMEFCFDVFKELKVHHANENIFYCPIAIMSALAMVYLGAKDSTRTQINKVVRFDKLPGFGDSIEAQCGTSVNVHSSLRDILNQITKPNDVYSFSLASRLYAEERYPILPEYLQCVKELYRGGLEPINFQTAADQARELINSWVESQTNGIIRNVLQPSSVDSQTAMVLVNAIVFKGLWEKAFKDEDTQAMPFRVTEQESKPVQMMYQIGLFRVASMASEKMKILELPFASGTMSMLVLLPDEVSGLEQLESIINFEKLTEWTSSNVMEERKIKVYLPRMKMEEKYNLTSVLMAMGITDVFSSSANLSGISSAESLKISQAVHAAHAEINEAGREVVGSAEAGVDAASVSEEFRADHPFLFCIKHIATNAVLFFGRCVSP

B1: R4P1-C1 (phage Fab clone) (Fab, V domains shown)
VH: QVQLQQSGPGLVKPSQTLSLTCAISGDSVSSNSAAWNWIRQSPSRGLEWLGRTYYRSKWYNDYAVSVKSRITINPDTSKNQFSLQLNSVTPEDTAVYYCARDDYDPVGMYAFDIWGQGTLVTVSS
VL: LPVLTQPPSASGTPGQRVTISCSGSSSNIGSNTVNWYQQLPGTAPKLLIYRNTQRPSGVPDRFSGSKSGTSASLAISGLQSEDEADYYCEAWDDSMRGAAFGGGTQLTVL
Q: For B1, which ELISA signal [1] is on record?
A: The ELISA signal was 0.06.

Q: And the ELISA signal [2]?
A: Its ELISA signal is 0.06.
